± gives the standard deviation of the averaged measurements.
Test system: Saccharomyces cerevisiae
Test: protein stability index of tFT-peptide fusion (C-terminal peptide) (PSI (0-1 scale)); higher = more stable (slower turnover)
Settings: genetic background: das1 deletion; temperature: 30 C
Description: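 MPS profiling in S. cerevisiae of the yeast C-terminome library: the last 12 aa of each annotated ORF are fused to the C-terminus of a sfGFP-mCherry timer, after a GGGS linker. Cells are FACS-sorted into 8 mCherry/sfGFP bins and deep-sequenced. PSI runs from 0 (unstable) to 1 (stable); wild type and das1Δ backgrounds, two technical replicates each.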

Row | Sequence | protein stability index
1 | DSVIVVLKTPVE [SMD2 C-terminal 12 aa] | 0.67383 ± 0.00026
2 | DTDGMQDQSSNI [IVY1 C-terminal 12 aa] | 0.693 ± 0.019
3 | DVDLTKSGGFKT [CKB2 C-terminal 12 aa] | 0.67664 ± 0.00023
4 | DVHSKIEKQLGI [UMP1 C-terminal 12 aa] | 0.7202 ± 0.0061
5 | DWVSHGGDKLDL [RDL1 C-terminal 12 aa] | 0.703 ± 0.042
6 | EAAKKSEKKSKK [RPL34B C-terminal 12 aa] | 0.702 ± 0.015
7 | EAQTSRAKNELS [PHD1 C-terminal 12 aa] | 0.6855 ± 0.004
8 | EAVKNDDIQIFG [BFR2 C-terminal 12 aa] | 0.6921 ± 0.0018
9 | EDADNDNDYDHE [SAP155 C-terminal 12 aa] | 0.677 ± 0.035
10 | EDHRDISGKDVN [UBP1 C-terminal 12 aa] | 0.68575 ± 0.0005
11 | EDLDADGDHKLV [TUB4 C-terminal 12 aa] | 0.6839 ± 0.0032
12 | EDLDSDLFSEVE [SSF1 C-terminal 12 aa] | 0.682 ± 0.02
13 | EEEKRHGINLKC [GUP2 C-terminal 12 aa] | 0.6905 ± 0.004
14 | EEFINKLVKAMN [RPL7B C-terminal 12 aa] | 0.649 ± 0.012
15 | EEGIDPSTYLNN [SUB2 C-terminal 12 aa] | 0.709 ± 0.033
16 | EEHHFYREHIFT [OCA4 C-terminal 12 aa] | 0.7231 ± 0.0018
17 | EEKTKKEKSLLQ [NPP2 C-terminal 12 aa] | 0.7035 ± 0.0011
18 | EELPSDIATLLN [YKR059W; YJL138C C-terminal 12 aa] | 0.7021 ± 0.00081
19 | EESDSPESTAFY [PMC1 C-terminal 12 aa] | 0.699 ± 0.01
20 | EETEKKLKNLKL [YRB30 C-terminal 12 aa] | 0.703 ± 0.029
21 | EEVLEETKEKVE [PRT1 C-terminal 12 aa] | 0.689 ± 0.034

Row | Sequence | protein stability index
22 | EEWSSKFGSNGS [YTA6 C-terminal 12 aa] | 0.7431 ± 0.0031
23 | EFLQIMKARISK [SEC24 C-terminal 12 aa] | 0.686 ± 0.011
24 | EGRGYQQIHKLS [YHR139C-A C-terminal 12 aa] | 0.721 ± 0.018
25 | EGSAFKKQKHYR [NOP9 C-terminal 12 aa] | 0.703 ± 0.0097
26 | EIALRKSGAVGS [YMR008C-A C-terminal 12 aa] | 0.689 ± 0.008
27 | EIGGLLLQSFYN [YPL119C-A C-terminal 12 aa] | 0.687 ± 0.039
28 | EIGHMYQKIKKS [MNN11 C-terminal 12 aa] | 0.721 ± 0.0077
29 | EIKCCHNGRALK [SAT4 C-terminal 12 aa] | 0.668 ± 0.023
30 | EIKQRNLRMQRQ [MPO1 C-terminal 12 aa] | 0.683 ± 0.026
31 | EKAKKSLSKMFS [CPR6 C-terminal 12 aa] | 0.688 ± 0.018
32 | EKLKLLNSQQKD [PET191 C-terminal 12 aa] | 0.682 ± 0.014
33 | ELASSILKELKL [KIN1 C-terminal 12 aa] | 0.707 ± 0.022
34 | ELDDILGSDSDF [MPH1 C-terminal 12 aa] | 0.711 ± 0.02
35 | ELEELLEPILAN [GRX1 C-terminal 12 aa] | 0.406 ± 0.028
36 | ELFTIISRIIED [TSL1 C-terminal 12 aa] | 0.702 ± 0.016
37 | ELIEKLKEVKAI [CIR1 C-terminal 12 aa] | 0.686 ± 0.018
38 | ELKINNDGRLVN [SEC66 C-terminal 12 aa] | 0.7137 ± 0.0053
39 | ELKKRFDALRRK [IST1 C-terminal 12 aa] | 0.686 ± 0.015
40 | ELLRIHNSHLRN [FOL3 C-terminal 12 aa] | 0.715 ± 0.031
41 | ELWYKSFGPHDE [APC1 C-terminal 12 aa] | 0.7 ± 0.027
42 | ENWIHVSCLSFM [LIN1 C-terminal 12 aa] | 0.6634 ± 0.0048

Row | Sequence | protein stability index
43 | EQITSSLQEASE [FSH1 C-terminal 12 aa] | 0.67 ± 0.016
44 | EQNFHFQFPPTN [IOC2 C-terminal 12 aa] | 0.7147 ± 0.0049
45 | ERDTTTKPSKRR [KEL3 C-terminal 12 aa] | 0.7092 ± 0.0049
46 | ERNPTQRPQRRY [RPS10A C-terminal 12 aa] | 0.728 ± 0.036
47 | ERPIVASTSPIA [TPH3 C-terminal 12 aa] | 0.71247 ± 4.2e-05
48 | ERWVRMGELMHY [YBR184W C-terminal 12 aa] | 0.686 ± 0.018
49 | ERYTSIESEIVV [APE4 C-terminal 12 aa] | 0.6735 ± 0.0063
50 | ESKDDDDDDDWE [DOS2 C-terminal 12 aa] | 0.709 ± 0.038
51 | ESRLFISDGAVF [MON1 C-terminal 12 aa] | 0.696 ± 0.0082
52 | ESSSPSQLQHEA [PHO84 C-terminal 12 aa] | 0.6938 ± 0.006
53 | ESTGHVDFGQNR [OTU1 C-terminal 12 aa] | 0.7 ± 0.012
54 | ETAENIAKYIRN [NPA3 C-terminal 12 aa] | 0.682 ± 0.024
55 | ETMVRIRVDGNE [DAD2 C-terminal 12 aa] | 0.665 ± 0.027
56 | EVDDDGEIDGLF [ADE3 C-terminal 12 aa] | 0.7153 ± 0.0044
57 | EVPGWQEYYDKL [YOR133W; YDR385W C-terminal 12 aa] | 0.72 ± 0.018
58 | EVTSLYTNASNA [DPC29 C-terminal 12 aa] | 0.715 ± 0.011
59 | EYNLDTFIKTLR [MOT1 C-terminal 12 aa] | 0.7535 ± 0.0064
60 | FAKLAAIPCSNA [YMR265C C-terminal 12 aa] | 0.553 ± 0.0059
61 | FEHFHCVLDQIL [YDR203W C-terminal 12 aa] | 0.7056 ± 0.0043
62 | FFFATQRDLKRT [YDR431W C-terminal 12 aa] | 0.715 ± 0.05
63 | FFMSDMNLSKEG [ATG13 C-terminal 12 aa] | 0.752 ± 0.016

Row | Sequence | protein stability index
64 | FFPFITIIFFHS [YCR024C-B C-terminal 12 aa] | 0.324 ± 0.026
65 | FGIKKNDLKKSN [GSF2 C-terminal 12 aa] | 0.708 ± 0.014
66 | FGRKLKKIFGRK [SEG2 C-terminal 12 aa] | 0.675 ± 0.035
67 | FIEALAKSVNEL [UGA1 C-terminal 12 aa] | 0.7371 ± 0.0042
68 | FKELLGYTLVSA [VSB1 C-terminal 12 aa] | 0.356 ± 0.03
69 | FKITTEHGTTQQ [CRT10 C-terminal 12 aa] | 0.675 ± 0.0095
70 | FKLKDEYLLIDD [SAS2 C-terminal 12 aa] | 0.69 ± 0.016
71 | FLIHTPKHPPPT [POG1 C-terminal 12 aa] | 0.698 ± 0.011
72 | FMWLLLALPVVF [FLO11 C-terminal 12 aa] | 0.362 ± 0.027
73 | FRALAELYNLVL [GAS5 C-terminal 12 aa] | 0.701 ± 0.02
74 | FRSTRSNTPNYT [HDA2 C-terminal 12 aa] | 0.728 ± 0.018
75 | FTAVLGTYLLTL [SDH3 C-terminal 12 aa] | 0.6494 ± 0.005
76 | FVLKTLNMNVTN [OST1 C-terminal 12 aa] | 0.681 ± 0.0095
77 | FVRKIYSSIKVD [EMP70 C-terminal 12 aa] | 0.665 ± 0.025
78 | FYNIHDERIREQ [YKL162C-A C-terminal 12 aa] | 0.746 ± 0.013
79 | GATDTSCYKERG [MRPL27 C-terminal 12 aa] | 0.695 ± 0.026
80 | GEEKKHLKMASP [MDE1 C-terminal 12 aa] | 0.6905 ± 0.0062
81 | GELFQIVSNQSS [STE6 C-terminal 12 aa] | 0.702 ± 0.017
82 | GFKGFSNKRVKG [MSS18 C-terminal 12 aa] | 0.689 ± 0.015

— the supplement of paper PMC10724198
